This note sets out measurements from publication PMC5042384, “Sequence-Dependent T:G Base Pair Opening in DNA Double Helix Bound by Cren7, a Chromatin Protein Conserved among Crenarchaea”.

Data set [1] deals with T1, Cren7 (UniProt Q97ZE3 1-60).
T1 sequence: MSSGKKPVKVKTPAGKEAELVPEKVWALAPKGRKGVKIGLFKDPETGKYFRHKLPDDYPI
As to the kind of experiment: X-ray crystallography; 2.0 A; T2:G15 open; SPR (BIAcore 3000): 50 mM Tris-Cl pH 7.5, 100 mM NaCl, 1 mM EDTA, 0.005% Tween 20, 25 C, 1:1 Langmuir global fit; crystals: protein:DNA 1:1.5, 30% PEG1500, 20 C. The settings on record: protein: recombinant; blunt; self-annealed octamer, 2 strand copies, T:G mispairs T2:G15 and G7:T10.

The target of data set [2] is T1, Cren7. As to the kind of experiment: X-ray crystallography; 2.1 A; both T:G wobble; SPR (BIAcore 3000): 50 mM Tris-Cl pH 7.5, 100 mM NaCl, 1 mM EDTA, 0.005% Tween 20, 25 C, 1:1 Langmuir global fit; crystals: protein:DNA 1:1.5, 30% PEG1500, 20 C. The settings on record: protein: recombinant; blunt; self-annealed octamer, 2 strand copies, T:G mispairs T2:G15 and G7:T10. Background: In SPR one partner is held on a chip, and binding of the other changes the refractive index at the surface.

B1: d(GTAATTGC)2 (dsDNA)
DNA 1: GTAATTGC
DNA 2: GTAATTGC
Take B1: in the data set with Cren7 [1], the binding result is recorded as “binds”.

B2: d(GTGATCGC)2 (dsDNA)
DNA 1: GTGATCGC
DNA 2: GTGATCGC
Consider B2, for which the binding result with Cren7 [2] was “binds”.
